Biological target: β-amyloid peptide Aβ1-40 (Homo sapiens (Human)) (UniProt P05067)
Test: Dissociation of 125I-VEGF165 from resuspended Aβ1-40/VEGF co-aggregate, radioactivity in supernatant

Vascular endothelial growth factor VEGF165, sequence (P15692 other isoform, or with tags, fused parts or gaps): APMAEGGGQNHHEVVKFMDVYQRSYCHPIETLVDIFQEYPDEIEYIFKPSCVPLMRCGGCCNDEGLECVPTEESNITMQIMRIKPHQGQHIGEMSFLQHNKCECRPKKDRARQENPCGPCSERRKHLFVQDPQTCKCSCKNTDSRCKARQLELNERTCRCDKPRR

percent of VEGF released from the Aβ/VEGF complex after 3 days: < 1.5%
Substance: Vascular endothelial growth factor VEGF165 (from UniProt P15692 207-395) (ligand)

Reference: patent US20080293922A1
